Assay results: the Human Domainome abundance scans (Beltran et al. 2025)

B1: Lysine-specific demethylase 2B, residues 656 to 722; numbered along this chain, Q8NHM5 (parent)
chain: LPHTAVCLVCGEAGKEDTVEEEEGKFNLMLMECSICNEIIHPGCLKIKESEGVVNDELPNCWECPKC

Variants of: B1
Test: abundance fitness (aPCA) (normalised: wild type 0, dead -1); higher = more abundant; growth selection in yeast, the domain comes from the species named
Details: Homo sapiens

Abundance fitness, by site and new letter:
V9: T 0.127, Q -0.635, S -0.1, N 0.239, G -0.273, R -0.297, W -0.727, L -0.126, M -0.049, K 0.088, I 0.226, P -0.707
G14: S -0.043, N -0.003, V -0.139, A -0.428, T -0.24, C -1.04, M -0.172, E -0.395, Q -0.009, L -0.508, F 0.104, W -0.635, K -0.229, R 0.04, I -0.418
V19: H -0.24, D -0.459, F 0.151, A -0.049, G -0.193, E -0.469
E12: P -0.458, N -0.365, T 0.045, G 0.099, W -0.224, V -0.303, C -0.159, R -0.016, M 0.089, Q 0.078, I -0.357, A -0.139
D17: N -0.035, A -0.173, C 0.039, Y -0.315, L -0.369, W -0.553, H 0.099, F -0.017, P -0.168, V -0.088, K -0.174, G 0.104, E -0.069, S -0.083, T -0.194, R -0.066, M 0.392, I 0.068, Q -0.091
E16: N -0.646, L -0.283, M -0.148, A -0.378, Y -0.786, D -0.609, R -0.148, Q 0.022, T 0.167, W -0.638, I -0.467, C -0.556, V -0.258, P -0.043, F -0.497, G -0.137, S -0.204
K15: P -0.609, F -0.368, G -0.206, A -0.525, R -0.355, I -0.305, Q -0.378, C -0.611, T -0.202, N -0.751, E -0.175, L -0.154, Y -0.583, D -1.01, W 0.017, H -0.65, M 0.12
G11: F -0.063, K 0.222, H -0.362, W -0.533, S -0.113, P -0.626, R -0.051, E -0.174, Q 0.129, N -0.382, T -0.354, M -0.308, L 0.046, C -0.541, I -0.828, A -0.139
A13: G 0.387, F 0.001, S 0.177, W -0.228, N -0.618, V 0.085, M 0.286, E 0.214, I 0.169, R 0.443, Y -0.117, K 0.175, L -0.077, D -0.138, Q 0.471, T -0.022, H -0.437, C -0.297
C10: Y -0.66, N -0.259, K -0.124, Q -0.528, T -0.244, L -1.01, E -0.329, I -1.04, R -0.53, W -1.14, V -1, F -0.868, P -0.517, G -0.277, A -0.37, H -0.828, M -0.613, S -0.332
T18: I -0.14, D -0.527, C -0.213, Y -0.427, E -0.471, Q -0.062, F -0.113, A -0.514, R -0.188, W -0.331, P -0.268, V -0.569, M -0.092, K -0.131, L -0.042, G -0.399, N -0.026
